Assay results published in US20120329986A1.
Numbered stars: 1 amine (or outer) side, 2 acyl side, 3 side chain; on linkers, the order of the positions; unused ones are H or OH. Square brackets hold non-standard residues; d marks the D form. Primed or numbered codes have the meaning given here. Ends that are not written are not given here. dTrp(2-Me) = Cc1[nH]c2ccccc2c1C[C@@H](N)C(=O)O; azaPhe = O=C(N(Cc1ccccc1)N[*:1])[*:2]; azaLeu = CC(C)CN(N[*:1])C(=O)[*:2]; azaTyr′ = not defined here; HAIC = not defined here; azaGly = NNC(=O)O; Mpa = O=C(O)CCS

target: CD36 receptor (in the src-kinase cellular assay); experiment: cell-based or functional assay

| SRC-kinase cellular assay EC50 [nM] | Binder |
| --- | --- |
| > 10000 | H[dW][azaLeu]W[dF]A-NH2 (N-terminus assumed; SMILES CC(C)CN(NC(=O)[C@@H](Cc1c[nH]c2ccccc12)NC(=O)[C@@H](N)Cc1c[nH]cn1)C(=O)N[C@@H](Cc1c[nH]c2ccccc12)C(=O)N[C@H](Cc1ccccc1)C(=O)N[C@@H](C)C(N)=O) [CP-2B(i)] |
| 44 | A[dW]A[azaPhe][dF]K-NH2 (N-terminus assumed; SMILES C[C@H](N)C(=O)N[C@H](Cc1c[nH]c2ccccc12)C(=O)N[C@@H](C)C(=O)NN(Cc1ccccc1)C(=O)N[C@H](Cc1ccccc1)C(=O)N[C@@H](CCCCN)C(N)=O) [CP-3(iv)] |
| 63 | H[dW]A[azaTyr′][dF]K-NH2 [DBG-178(27)] |
| 26 | H[dW][azaGly]W[dF]K-NH2 [CP-2A(v)] |

target: nonspecific proteins present in blood serum; experiment: SPR, mass of serum proteins adsorbed on the peptide self-assembled monolayer on gold

| nonspecific adsorption (ΔΓnonspecific) [ng/cm^2] | Binder |
| --- | --- |
| 174 | [Mpa]LLHHDD-OH (SMILES CC(C)C[C@H](NC(=O)CCS)C(=O)N[C@@H](CC(C)C)C(=O)N[C@@H](Cc1c[nH]cn1)C(=O)N[C@@H](Cc1c[nH]cn1)C(=O)N[C@@H](CC(=O)O)C(=O)N[C@@H](CC(=O)O)C(=O)O) [3-MPA-LLHHDD-OH] |
| 17 | [Mpa]SHDSHD-OH (SMILES O=C(O)C[C@H](NC(=O)[C@H](Cc1c[nH]cn1)NC(=O)[C@H](CO)NC(=O)[C@H](CC(=O)O)NC(=O)[C@H](Cc1c[nH]cn1)NC(=O)[C@H](CO)NC(=O)CCS)C(=O)O) [3-MPA-SHDSHD-OH] |
| 34 | [Mpa]DSDSD-OH (SMILES O=C(O)C[C@H](NC(=O)[C@H](CO)NC(=O)[C@H](CC(=O)O)NC(=O)[C@H](CO)NC(=O)[C@H](CC(=O)O)NC(=O)CCS)C(=O)O) [3-MPA-DSDSD-OH] |
| 274 | [Mpa]DHDHD-OH (SMILES O=C(O)C[C@H](NC(=O)[C@H](Cc1c[nH]cn1)NC(=O)[C@H](CC(=O)O)NC(=O)[C@H](Cc1c[nH]cn1)NC(=O)[C@H](CC(=O)O)NC(=O)CCS)C(=O)O) [3-MPA-DHDHD-OH] |
| 32 | [Mpa]HHHDD [3-MPA-HHHDD] |
| 48 | [Mpa]HHHSS [3-MPA-HHHSS] |
| 79 | [Mpa]SSSHH [3-MPA-SSSHH] |
| 39 | [Mpa]LLLSS [3-MPA-LLLSS] |
| 35 | [Mpa]LLLDD [3-MPA-LLLDD] |
| 12 | [Mpa]LHDLHD-OH (SMILES CC(C)C[C@H](NC(=O)CCS)C(=O)N[C@@H](Cc1c[nH]cn1)C(=O)N[C@@H](CC(=O)O)C(=O)N[C@@H](CC(C)C)C(=O)N[C@@H](Cc1c[nH]cn1)C(=O)N[C@@H](CC(=O)O)C(=O)O) [3-MPA-LHDLHD-OH] |
| 23 | [Mpa]SSSDD [3-MPA-SSSDD] |
| 218 | [Mpa]GGGGD-OH (SMILES O=C(O)C[C@H](NC(=O)CNC(=O)CNC(=O)CNC(=O)CNC(=O)CCS)C(=O)O) [3-MPA-GGGGD-OH] |
| 56 | [Mpa]DDDHH [3-MPA-DDDHH] |
| 45 | [Mpa]LLLHH [3-MPA-LLLHH] |
| 149 | [Mpa]GGHHDD-OH (SMILES O=C(O)C[C@H](NC(=O)[C@H](CC(=O)O)NC(=O)[C@H](Cc1c[nH]cn1)NC(=O)[C@H](Cc1c[nH]cn1)NC(=O)CNC(=O)CNC(=O)CCS)C(=O)O) [3-MPA-GGHHDD-OH] |
| 69 | [Mpa]DDDSS [3-MPA-DDDSS] |

target: recombinant soluble His-tagged CD36; experiment: SPR, His-tagged CD36 held on the Cu-NTA peptide monolayer, linear Langmuir plot
Sequence (P16671 30-439): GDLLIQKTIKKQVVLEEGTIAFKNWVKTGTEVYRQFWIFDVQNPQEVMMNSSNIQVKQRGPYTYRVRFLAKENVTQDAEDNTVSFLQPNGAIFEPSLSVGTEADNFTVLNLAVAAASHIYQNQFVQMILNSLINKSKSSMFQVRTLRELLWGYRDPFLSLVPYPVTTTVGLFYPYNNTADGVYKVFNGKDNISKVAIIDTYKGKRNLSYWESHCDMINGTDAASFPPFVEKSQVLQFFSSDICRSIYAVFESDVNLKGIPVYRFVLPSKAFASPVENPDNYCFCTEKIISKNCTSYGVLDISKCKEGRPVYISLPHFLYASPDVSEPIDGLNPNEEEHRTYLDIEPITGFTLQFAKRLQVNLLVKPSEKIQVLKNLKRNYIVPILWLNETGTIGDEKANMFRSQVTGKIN

| Kd [nM] | Binder |
| --- | --- |
| 1400 | H[dW][azaLeu]W[dF]A-NH2 (N-terminus assumed; SMILES CC(C)CN(NC(=O)[C@@H](Cc1c[nH]c2ccccc12)NC(=O)[C@@H](N)Cc1c[nH]cn1)C(=O)N[C@@H](Cc1c[nH]c2ccccc12)C(=O)N[C@H](Cc1ccccc1)C(=O)N[C@@H](C)C(N)=O) [CP-2B(i)] |
| 82 | [HAIC][dTrp(2-Me)][dK]W[dF]K-NH2 (reading uncertain) [EP80317] |
| 380 | A[dW]A[azaPhe][dF]K-NH2 (N-terminus assumed; SMILES C[C@H](N)C(=O)N[C@H](Cc1c[nH]c2ccccc12)C(=O)N[C@@H](C)C(=O)NN(Cc1ccccc1)C(=O)N[C@H](Cc1ccccc1)C(=O)N[C@@H](CCCCN)C(N)=O) [CP-3(iv)] |
| 22 | H[dW]A[azaTyr′][dF]K-NH2 [DBG-178(27)] |
| 44 | H[dW][azaGly]W[dF]K-NH2 [CP-2A(v)] |
